Assays:
Experiment in all cases: EMSA; EC50; 10 mM KH2PO4, 100 mM NaCl, 0.01% IGEPAL, 5 nM Cy5 DNA, 30 min at 37 C; pH not stated; 8% gel in 1x TBE at 4 C
Details in all cases: protein: recombinant; tags: N-terminal His6 (pET-28a NdeI-XhoI); chain copies: 2; label: 5' Cy5 on forward strand; blunt
Banf1 H7Y = molecular target: T1, Banf1 H7Y (Homo sapiens, UniProt O75531 1-89, H7Y)
T1 sequence: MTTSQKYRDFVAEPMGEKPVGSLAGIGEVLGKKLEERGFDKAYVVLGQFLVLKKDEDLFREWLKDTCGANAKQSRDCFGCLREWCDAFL

Banf1 R75W = molecular target: T2, Banf1 R75W (Homo sapiens, UniProt O75531 1-89, R75W)
T2 sequence: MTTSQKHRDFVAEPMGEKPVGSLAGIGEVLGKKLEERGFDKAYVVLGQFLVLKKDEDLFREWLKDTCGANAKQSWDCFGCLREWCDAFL

Banf1 N70T = molecular target: T3, Banf1 N70T (Homo sapiens, UniProt O75531 1-89, N70T)
T3 sequence: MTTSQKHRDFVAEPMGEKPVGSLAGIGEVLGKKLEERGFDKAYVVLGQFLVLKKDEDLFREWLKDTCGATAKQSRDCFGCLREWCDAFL

B1: Cy5 40 bp dsDNA (dsDNA)
DNA 1: AGGAGCGCCAGACCCACCAAGAGCCCTCTATCGGTTGGGA
DNA 2: TCCCAACCGATAGAGGGCTCTTGGTGGGTCTGGCGCTCCT
Q: Which “apparent K (half saturation)” value (Banf1 H7Y) does the source give for B1 here?
A: The value was 26.1 ± 5.02 nM.

Q: What about the “apparent K (half saturation)” value (Banf1 R75W) of the same binder?
A: The value was 27.8 ± 3.17 nM.

Q: And the “apparent K (half saturation)” value (Banf1 N70T)?
A: The value was 34.9 ± 4.38 nM.
